Several values for one entry are separate records, joined by “and”; a condition that tells them apart may be missing. Equal values may be shown once.
Details: Escherichia coli (strain K12); pH 7.8; 25 °C; Urea; Absorbance; Potassium phosphate 10 mM; transition: 3; whole UniProt chain shown

B1: Tryptophan synthase alpha chain wild type, P0A877 (protein)
chain: MERYESLFAQLKERKEGAFVPFVTLGDPGIEQSLKIIDTLIEAGADALELGIPFSDPLADGPTIQNATLRAFAAGVTPAQCFEMLALIRQKHPTIPIGLLMYANLVFNKGIDEFYAQCEKVGVDSVLVADVPVEESAPFRQAALRHNVAPIFICPPNADDDLLRQIASYGRGYTYLLSRAGVTGAENRAALPLNHLVAKLKEYNAAPPLQGFGISAPDQVKAAIDAGAAGAISGSAIVKIIEQHINEPEKMLAALKVFVQPMKAATRS
denaturant m value: 2.2 kcal/mol/M and 1.2 kcal/mol/M
denaturant midpoint (higher = more stable): 2.62 M and 4.18 M

— FireProtDB (doi:10.1021/bi00369a002)
